Results taken from publication PMC11565947 (bioRxiv, 2024).

T1: prefusion-stabilized hMPV F protein (hMPV prefusion F trimer) (human metapneumovirus; subgroup/strain …, stabilised)
T1 chain 1: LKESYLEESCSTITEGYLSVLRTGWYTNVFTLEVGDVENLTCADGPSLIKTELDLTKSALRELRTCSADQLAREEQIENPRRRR
T1 chain 2: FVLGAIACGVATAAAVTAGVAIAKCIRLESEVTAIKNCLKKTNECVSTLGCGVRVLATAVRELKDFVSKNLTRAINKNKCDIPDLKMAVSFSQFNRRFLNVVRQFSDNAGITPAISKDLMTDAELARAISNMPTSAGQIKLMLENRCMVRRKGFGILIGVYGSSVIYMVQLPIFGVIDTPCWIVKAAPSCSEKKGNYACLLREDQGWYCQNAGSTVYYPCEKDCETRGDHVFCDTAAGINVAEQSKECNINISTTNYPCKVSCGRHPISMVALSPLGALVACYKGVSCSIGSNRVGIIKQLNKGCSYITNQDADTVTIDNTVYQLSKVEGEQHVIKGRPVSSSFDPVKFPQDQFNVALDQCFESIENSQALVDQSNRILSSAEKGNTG

T2: prefusion-stabilized hMPV F construct hMPV F-DS-CavEs2-IPDS (human metapneumovirus, N-linked glycans (Asn172, Asn57))
T2 chain: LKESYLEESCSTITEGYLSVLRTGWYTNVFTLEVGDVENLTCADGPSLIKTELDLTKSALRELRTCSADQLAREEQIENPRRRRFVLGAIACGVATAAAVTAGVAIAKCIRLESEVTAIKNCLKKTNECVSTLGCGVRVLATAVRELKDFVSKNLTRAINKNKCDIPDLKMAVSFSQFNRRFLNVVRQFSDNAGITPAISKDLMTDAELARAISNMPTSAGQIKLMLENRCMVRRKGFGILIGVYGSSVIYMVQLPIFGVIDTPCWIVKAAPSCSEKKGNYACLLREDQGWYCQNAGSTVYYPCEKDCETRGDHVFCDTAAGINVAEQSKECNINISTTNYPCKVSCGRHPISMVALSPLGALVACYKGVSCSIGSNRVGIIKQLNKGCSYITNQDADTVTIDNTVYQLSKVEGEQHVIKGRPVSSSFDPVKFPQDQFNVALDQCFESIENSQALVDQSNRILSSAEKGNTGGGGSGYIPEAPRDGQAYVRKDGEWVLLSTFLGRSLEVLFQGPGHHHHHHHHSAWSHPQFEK


Columns and labels:
[1] = target: T1, prefusion-stabilized hMPV F protein …; assay: cell-based or functional assay
[2] = target: prefusion-stabilized RSV F protein (RSV prefusion F trimer) (human respiratory syncytial virus A, …, UniProt P03420, stabilised); assay: ELISA
[3] = target: T2, prefusion-stabilized hMPV F construct …; assay: cryo-EM structure

Binder	PRNT neutralisation of hMPV 97–83 and hMPV TN/93–32, IC50 [1]	binding result [2]	stoichiometry N [3]
monoclonal antibody 5–1 (recombinant human IgG1) (antibody, V domains shown) VH: QGQLVQSGPEVKKPGATVKVSCRASAYPFGNYGITWVRQVPGQGLEWVGWISAYTGHTKFPQNFQGRVTLTADTSTSTGYMELRSLTSDDTAVYYCARGPCCSSPRPYDIWGQGTMVTVSS VL: DIQMTQSPSTLSASVGDRVTITCRASQSIDDWLAWYQHSPGKAPKLLIYRASRLESGVPSRFSGSGSGTEFTLTISSLQPDDFASYYCQQCYTYSQTFGQGTRVEIK	< 10 ng/mL	binds	
5–1 antigen-binding fragment (Fab) (Fab, V domains shown) VH: QGQLVQSGPEVKKPGATVKVSCRASAYPFGNYGITWVRQVPGQGLEWVGWISAYTGHTKFPQNFQGRVTLTADTSTSTGYMELRSLTSDDTAVYYCARGPCCSSPRPYDIWGQGTMVTVSS VL: DIQMTQSPSTLSASVGDRVTITCRASQSIDDWLAWYQHSPGKAPKLLIYRASRLESGVPSRFSGSGSGTEFTLTISSLQPDDFASYYCQQCYTYSQTFGQGTRVEIK			3 Fabs per trimer
